Measured values as given in article PMC4961225, “The Molecular Basis for Ubiquitin and Ubiquitin-like Specificities in Bacterial Effector Proteases” (Molecular Cell, 2016).

Target: T1, ubiquitin (uniformly 15N-labeled Ub) (UniProt P0CG48 1-76)
T1 construct: also called 15N-Ub
Experiment: NMR titration; uniformly 15N-labeled Ub observed (1H,15N-HSQC TROSY; 80 μM Ub in Figure 6), unlabeled partner added; 25°C
Conditions: both partners purified

B1: SseL (aa 24–340) (domain or fragment)
chain: VSDEALTLLFSAVENGDQNCIDLLCNLALRNDDLGHRVEKFLFDLFSGKRTGSSDIDKKINQACLVLHQIANNDITKDNTEWKKLHAPSRLLYMAGSATTDLSKKIGIAHKIMGDQFAQTDQEQVGVENLWCGARMLSSDELAAATQGLVQESPLLSVNYPIGLIHPTTKENILSTQLLEKIAQSGLSHNEVFLVNTGDHWLLCLFYKLAEKIKCLIFNTYYDLNENTKQEIIEAAKIAGISESDEVNFIEMNLQNNVPNGCGLFCYHTIQLLSNAGQNDPATTLREFAENFLTLSVEEQALFNTQTRRQIYEYSLQ
binding result: binds
